In patent publication US20250388669A1 (published 2025):

T1: B7H3 (UniProt Q5ZPR3 29-466, limits assumed)
T1 sequence (looked up): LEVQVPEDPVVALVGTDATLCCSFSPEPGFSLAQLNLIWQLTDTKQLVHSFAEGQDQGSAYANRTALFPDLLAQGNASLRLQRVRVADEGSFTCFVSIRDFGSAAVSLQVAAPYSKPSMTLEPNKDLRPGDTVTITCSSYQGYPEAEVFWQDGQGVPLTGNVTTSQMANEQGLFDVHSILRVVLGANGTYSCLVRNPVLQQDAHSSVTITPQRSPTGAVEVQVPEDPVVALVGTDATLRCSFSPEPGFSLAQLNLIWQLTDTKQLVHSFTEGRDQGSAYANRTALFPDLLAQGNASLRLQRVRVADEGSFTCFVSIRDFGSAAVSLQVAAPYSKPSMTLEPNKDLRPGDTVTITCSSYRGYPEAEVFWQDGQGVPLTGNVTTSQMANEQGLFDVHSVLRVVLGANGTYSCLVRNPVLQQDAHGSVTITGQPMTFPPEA

B1: Ly2122 (bispecific antibody, human IgG1, kappa)
chain 1: QVQLVQSGAEVKKPGASVKVSCKASGYTFTSYVMHWVRQKPGQGLEWIGYINPYNEGTESTDKFKGRATMTSDKSTSTVYMELSSLRSEDTAVYYCASIYYGYEGTYFGVWGQGTLVTVSSASTKGPSVFPLAPSSKSTSGGTAALGCLVKDYFPEPVTVSWNSGALTSGVHTFPAVLQSSGLYSLSSVVTVPSSSLGTQTYICNVNHKPSNTKVDKKVEPKSCDKTHTCPPCPAPEAAGPSVFLFPPKPKDTLMISRTPEVTCVVVDVSHEDPEVKFNWYVDGVEVHNAKTKPREEQYNSTYRVVSVLTVLHQDWLNGKEYKCKVSNKALPAPIEKTISKAKGQPREPQVYTLPPSREEMTKNQVSLWCLVKGFYPSDIAVEWESNGQPENNYKTTPPVLDSDGSFFLYSKLTVDKSRWQQGNVFSCSVMHEALHNHYTQKSLSLSPGGGGGSGGGGSGGGGSGGGGSQVQLVQSGAEVKKPGASVKVSCKASGYTFAGFEMHWVRQAPGQGLEWMGAIDPKTGGTDYNQKFKDRVTMTRDTSISTAYMELSRLRSDDTAVYYCARDLGYFDVWGQGTLVTVSS
chain 2: QVQLVQSGAEVKKPGASVKVSCKASGYTFTSYVMHWVRQKPGQGLEWIGYINPYNEGTESTDKFKGRATMTSDKSTSTVYMELSSLRSEDTAVYYCASIYYGYEGTYFGVWGQGTLVTVSSASTKGPSVFPLAPSSKSTSGGTAALGCLVKDYFPEPVTVSWNSGALTSGVHTFPAVLQSSGLYSLSSVVTVPSSSLGTQTYICNVNHKPSNTKVDKKVEPKSCDKTHTCPPCPAPEAAGPSVFLFPPKPKDTLMISRTPEVTCVVVDVSHEDPEVKFNWYVDGVEVHNAKTKPREEQYNSTYRVVSVLTVLHQDWLNGKEYKCKVSNKALPAPIEKTISKAKGQPREPQVYTLPPSREEMTKNQVSLSCAVKGFYPSDIAVEWESNGQPENNYKTTPPVLDSDGSFFLVSKLTVDKSRWQQGNVFSCSVMHEALHNRFTQKSLSLSPGGGGGSGGGGSGGGGSGGGGSDIQMTQSPSSLSASVGDRVTITCRASQDIRSNLNWYQQKPGGAVKLLIYYTSRLHSGVPSRFSGSGSGTDYTLTISSLQPEDFATYFCQQSEKLPRTFGGGTKVEIR
light: EIVLTQSPATLSLSPGERATLSCRASSSVSYMHWYQQKPGQAPRPWIYATSNLASGIPARFSGSRSGTDYTLTISSLEPEDFAVYYCQQWSSNTLTFGGGTKVEIKRTVAAPSVFIFPPSDEQLKSGTASVVCLLNNFYPREAKVQWKVDNALQSGNSQESVTEQDSKDSTYSLSSTLTLSKADYEKHKVYACEVTHQGLSSPVTKSFNRGEC
notes: Bispecific B7H3 (two Fabs) / CD137 (terminal Fv)
B2: Ly076 (antibody, V domains shown)
VH: QVQLVQSGAEVKKPGASVKVSCKASGYTFTDFWMSWVRQAPGQGLEWMGQIYPNTGTTHSNEKFKGRVTMTRDTSTSTVYMELSSLRSEDTAVYYCARSYHISTTPNWFAYWGQGTLVTVSS
VL: DIQMTQSPSSLSASVGDRVTITCKASQNVYKKLEWYQQKPGKVPKVLIYHTNILQTGVPSRFSGSGSGTDYTLTISSLQPEDVATYYCYQWNSGPTFGGGTKVEIK
notes: Parent mAb; also called Anti-PD-L1 Ly076; parent anti-PD-L1 antibody
B3: Ly2438 (bispecific antibody)
heavy 1: QVQLVQSGAEVKKPGASVKVSCKASGYTFTDFWMSWVRQAPGQGLEWMGQIYPNTGTTHSNEKFKGRVTMTRDTSTSTVYMELSSLRSEDTAVYYCARSYHISTTPNWFAYWGQGTLVTVSSASTKGPSVFPLAPSSKSTSGGTAALGCLVKDYFPEPVTVSWNSGALTSGVHTFPAVLQSSGLYSLSSVVTVPSSSLGTQTYICNVNHKPSNTKVDKKVEPKSCGGGGSGGGGSGGGGSGGGGSEVQLVESGGGLVQPGGSLRLSCAASGFTFTNYGLHWVRQAPGKGLEWVSSISPSGGVTYYRDSVKGRFTISRDNSKNTLYLQMNSLRAEDTAVYYCAKPFLGWGGANWIAHWGQGTLVTVSSGGGGSDKTHTCPPCPAPEAAGPSVFLFPPKPKDTLMISRTPEVTCVVVDVSHEDPEVKFNWYVDGVEVHNAKTKPREEQYNSTYRVVSVLTVLHQDWLNGKEYKCKVSNKALPAPIEKTISKAKGQPREPQVYTLPPSREEMTKNQVSLWCLVKGFYPSDIAVEWESNGQPENNYKTTPPVLDSDGSFFLYSKLTVDKSRWQQGNVFSCSVMHEALHNHYTQKSLSLSPG
heavy 2: QVQLVQSGAEVKKPGASVKVSCKASGYTFTDFWMSWVRQAPGQGLEWMGQIYPNTGTTHSNEKFKGRVTMTRDTSTSTVYMELSSLRSEDTAVYYCARSYHISTTPNWFAYWGQGTLVTVSSASTKGPSVFPLAPSSKSTSGGTAALGCLVKDYFPEPVTVSWNSGALTSGVHTFPAVLQSSGLYSLSSVVTVPSSSLGTQTYICNVNHKPSNTKVDKKVEPKSCGGGGSGGGGSGGGGSGGGGSDIQMTQSPSSLSASVGDRVTITCLASEDISNDLAWYQQKPGKAPKLLIYFVDRLLDGVPSRFSGSGSGTDFTLTISSLQPEDFATYYCQQSYKYPPTFGQGTKLEIKGGGGSDKTHTCPPCPAPEAAGPSVFLFPPKPKDTLMISRTPEVTCVVVDVSHEDPEVKFNWYVDGVEVHNAKTKPREEQYNSTYRVVSVLTVLHQDWLNGKEYKCKVSNKALPAPIEKTISKAKGQPREPQVYTLPPSREEMTKNQVSLSCAVKGFYPSDIAVEWESNGQPENNYKTTPPVLDSDGSFFLVSKLTVDKSRWQQGNVFSCSVMHEALHNRFTQKSLSLSPG
light: DIQMTQSPSSLSASVGDRVTITCKASQNVYKKLEWYQQKPGKVPKVLIYHTNILQTGVPSRFSGSGSGTDYTLTISSLQPEDVATYYCYQWNSGPTFGGGTKVEIKRTVAAPSVFIFPPSDEQLKSGTASVVCLLNNFYPREAKVQWKVDNALQSGNSQESVTEQDSKDSTYSLSSTLTLSKADYEKHKVYACEVTHQGLSSPVTKSFNRGEC
notes: PD-L1 Fabs (Ly076) x central CD40 Fv (TM559)
B4: Ly2444 (bispecific antibody, human IgG1, kappa)
heavy 1: QVQLVQSGAEVKKPGASVKVSCKASGYTFTDFWMSWVRQAPGQGLEWMGQIYPNTGTTHSNEKFKGRVTMTRDTSTSTVYMELSSLRSEDTAVYYCARSYHISTTPNWFAYWGQGTLVTVSSASTKGPSVFPLAPSSKSTSGGTAALGCLVKDYFPEPVTVSWNSGALTSGVHTFPAVLQSSGLYSLSSVVTVPSSSLGTQTYICNVNHKPSNTKVDKKVEPKSCDKTHTCPPCPAPEAAGPSVFLFPPKPKDTLMISRTPEVTCVVVDVSHEDPEVKFNWYVDGVEVHNAKTKPREEQYNSTYRVVSVLTVLHQDWLNGKEYKCKVSNKALPAPIEKTISKAKGQPREPQVYTLPPSREEMTKNQVSLWCLVKGFYPSDIAVEWESNGQPENNYKTTPPVLDSDGSFFLYSKLTVDKSRWQQGNVFSCSVMHEALHNHYTQKSLSLSPGGGGGSGGGGSGGGGSGGGGSEVQLVESGGGLVQPGGSLRLSCAASGFTFTNYGLHWVRQAPGKGLEWVSSISPSGGVTYYRDSVKGRFTISRDNSKNTLYLQMNSLRAEDTAVYYCAKPFLGWGGANWIAHWGQGTLVTVSS
heavy 2: QVQLVQSGAEVKKPGASVKVSCKASGYTFTDFWMSWVRQAPGQGLEWMGQIYPNTGTTHSNEKFKGRVTMTRDTSTSTVYMELSSLRSEDTAVYYCARSYHISTTPNWFAYWGQGTLVTVSSASTKGPSVFPLAPSSKSTSGGTAALGCLVKDYFPEPVTVSWNSGALTSGVHTFPAVLQSSGLYSLSSVVTVPSSSLGTQTYICNVNHKPSNTKVDKKVEPKSCDKTHTCPPCPAPEAAGPSVFLFPPKPKDTLMISRTPEVTCVVVDVSHEDPEVKFNWYVDGVEVHNAKTKPREEQYNSTYRVVSVLTVLHQDWLNGKEYKCKVSNKALPAPIEKTISKAKGQPREPQVYTLPPSREEMTKNQVSLSCAVKGFYPSDIAVEWESNGQPENNYKTTPPVLDSDGSFFLVSKLTVDKSRWQQGNVFSCSVMHEALHNRFTQKSLSLSPGGGGGSGGGGSGGGGSGGGGSDIQMTQSPSSLSASVGDRVTITCLASEDISNDLAWYQQKPGKAPKLLIYFVDRLLDGVPSRFSGSGSGTDFTLTISSLQPEDFATYYCQQSYKYPPTFGQGTKLEIK
light: DIQMTQSPSSLSASVGDRVTITCKASQNVYKKLEWYQQKPGKVPKVLIYHTNILQTGVPSRFSGSGSGTDYTLTISSLQPEDVATYYCYQWNSGPTFGGGTKVEIKRTVAAPSVFIFPPSDEQLKSGTASVVCLLNNFYPREAKVQWKVDNALQSGNSQESVTEQDSKDSTYSLSSTLTLSKADYEKHKVYACEVTHQGLSSPVTKSFNRGEC
notes: PD-L1 Fabs (Ly076) x terminal CD40 Fv (TM559)

Legend:
B7H3 = biological target: T1, B7H3; assay: FCM or ELISA (graded summary table)
CD137 = biological target: T2, CD137 (UniProt Q07011 24-186, limits assumed); assay: FCM or ELISA (graded summary table)
T2 construct: also called 4-1BB

PD-L1 = biological target: T3, PD-L1 (human, UniProt Q9NZQ7 19-238, limits assumed); assay: PD-L1 binding, FCM or ELISA
T3 construct: In the reporter assay it is on Raji cells expressing human PD-L1

PD-L1 (binding assay) = PD-L1 (binding assay) (UniProt Q9NZQ7 19-238, limits assumed); assay: FCM or ELISA, graded
CD40 = CD40 (UniProt P25942 21-193, limits assumed); assay: FCM or ELISA, graded
Sequence of CD40 (P25942 21-193 limits assumed): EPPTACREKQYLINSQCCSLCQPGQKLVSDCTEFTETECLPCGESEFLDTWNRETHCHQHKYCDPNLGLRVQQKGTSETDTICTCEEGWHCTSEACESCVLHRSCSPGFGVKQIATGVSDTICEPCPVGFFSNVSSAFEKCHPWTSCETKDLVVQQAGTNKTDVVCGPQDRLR

Sequence of PD-L1 (binding assay) (Q9NZQ7 19-238 limits assumed): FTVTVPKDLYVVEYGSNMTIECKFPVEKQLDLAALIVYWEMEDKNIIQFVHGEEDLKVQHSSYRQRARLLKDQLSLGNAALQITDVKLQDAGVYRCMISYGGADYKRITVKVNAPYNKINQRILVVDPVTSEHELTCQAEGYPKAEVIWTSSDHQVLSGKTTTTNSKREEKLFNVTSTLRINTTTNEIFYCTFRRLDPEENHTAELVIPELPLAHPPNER
T3 sequence (Q9NZQ7 19-238 limits assumed): as above

| Binder | binding result (B7H3) | binding result (CD137) | binding result (PD-L1) | binding result (PD-L1 (binding assay)) | binding result (CD40) |
| --- | --- | --- | --- | --- | --- |
| B1 | binds | binds | – | – | – |
| B2 | – | – | binds | – | – |
| B3 | – | – | – | binds | binds |
| B4 | – | – | – | binds | binds |
